In patent publication US20060257938A1, “Method of screening for drugs that block ligand binding to a lipid binding protein” (priority 2005, published 2006):

B1: 38Q 106W 117A 72A (protein, listed as Rattus norvegicus)
chain: AFDGTWKVDRNENYEKFMEKMGINVVKRKLGAHDNLKQTITQEGNKFTVKESSNFRNIDVVFELGVDFAYSAADGTELTGTWTMEGNKLVGKFKRVDNGKELIAVWEISGNELIQTATYEGVEAKRIFKKE
modifications: PEPTIDE (1)...(131) wild-type rat intestinal fatty acid binding protein
B2: 14V 18L 73V 117A 72A (protein, listed as Rattus norvegicus)
chain: AFDGTWKVDRNENVEKFLEKMGINVVKRKLGAHDNLKLTITQEGNKFTVKESSNFRNIDVVFELGVDFAYSAVDGTELTGTWTMEGNKLVGKFKRVDNGKELIAVREISGNELIQTATYEGVEAKRIFKKE
modifications: PEPTIDE (1)...(131) wild-type rat intestinal fatty acid binding protein
B3: L2P9E12: FABP probe, substitutions M18L F55L A73I vs SEQ ID NO: 2 (protein, listed as Rattus norvegicus)
chain: AFDGTWKVDRNENYEKFLEKMGINVVKRKLGAHDNLKLTITQEGNKFTVKESSNLRNIDVVFELGVDFAYSLIDGTELTGTWTMEGNKLVGKFKRVDNGKELIAVREISGNELIQTYTYEGVEAKRIFKKE
modifications: PEPTIDE (1)...(131) wild-type rat intestinal fatty acid binding protein
B4: L2P12G9: FABP probe, substitutions M18L A73V vs SEQ ID NO: 2 (protein, listed as Rattus norvegicus)
chain: AFDGTWKVDRNENYEKFLEKMGINVVKRKLGAHDNLKLTITQEGNKFTVKESSNFRNIDVVFELGVDFAYSLVDGTELTGTWTMEGNKLVGKFKRVDNGKELIAVREISGNELIQTYTYEGVEAKRIFKKE
modifications: PEPTIDE (1)...(131) wild-type rat intestinal fatty acid binding protein
B5: 73I 72A (protein, listed as Rattus norvegicus)
chain: AFDGTWKVDRNENYEKFMEKMGINVVKRKLGAHDNLKLTITQEGNKFTVKESSNFRNIDVVFELGVDFAYSAIDGTELTGTWTMEGNKLVGKFKRVDNGKELIAVREISGNELIQTYTYEGVEAKRIFKKE
modifications: PEPTIDE (1)...(131) wild-type rat intestinal fatty acid binding protein
B6: 21W 78A 102V 72A (protein, listed as Rattus norvegicus)
chain: AFDGTWKVDRNENYEKFMEKWGINVVKRKLGAHDNLKLTITQEGNKFTVKESSNFRNIDVVFELGVDFAYSAADGTEATGTWTMEGNKLVGKFKRVDNGKEVIAVREISGNELIQTYTYEGVEAKRIFKKE
modifications: PEPTIDE (1)...(131) wild-type rat intestinal fatty acid binding protein
B7: 18L 55L 73I 72A (protein, listed as Rattus norvegicus)
chain: AFDGTWKVDRNENYEKFLEKMGINVVKRKLGAHDNLKLTITQEGNKFTVKESSNLRNIDVVFELGVDFAYSAIDGTELTGTWTMEGNKLVGKFKRVDNGKELIAVREISGNELIQTYTYEGVEAKRIFKKE
modifications: PEPTIDE (1)...(131) wild-type rat intestinal fatty acid binding protein
B8: L2P4C5: FABP probe, substitutions M18I G31Y vs SEQ ID NO: 2 (protein, listed as Rattus norvegicus)
chain: AFDGTWKVDRNENYEKFIEKMGINVVKRKLYAHDNLKLTITQEGNKFTVKESSNFRNIDVVFELGVDFAYSLADGTELTGTWTMEGNKLVGKFKRVDNGKELIAVREISGNELIQTYTYEGVEAKRIFKKE
modifications: PEPTIDE (1)...(131) wild-type rat intestinal fatty acid binding protein
B9: L2P1E6: FABP probe, substitutions M18L A73L vs SEQ ID NO: 2 (protein, listed as Rattus norvegicus)
chain: AFDGTWKVDRNENYEKFLEKMGINVVKRKLGAHDNLKLTITQEGNKFTVKESSNFRNIDVVFELGVDFAYSLLDGTELTGTWTMEGNKLVGKFKRVDNGKELIAVREISGNELIQTYTYEGVEAKRIFKKE
modifications: PEPTIDE (1)...(131) wild-type rat intestinal fatty acid binding protein
B10: 21W 78F 72A (protein, listed as Rattus norvegicus)
chain: AFDGTWKVDRNENYEKFMEKWGINVVKRKLGAHDNLKLTITQEGNKFTVKESSNFRNIDVVFELGVDFAYSAADGTEFTGTWTMEGNKLVGKFKRVDNGKELIAVREISGNELIQTYTYEGVEAKRIFKKE
modifications: PEPTIDE (1)...(131) wild-type rat intestinal fatty acid binding protein
B11: 21W 78I 72A (protein, listed as Rattus norvegicus)
chain: AFDGTWKVDRNENYEKFMEKWGINVVKRKLGAHDNLKLTITQEGNKFTVKESSNFRNIDVVFELGVDFAYSAADGTEITGTWTMEGNKLVGKFKRVDNGKELIAVREISGNELIQTYTYEGVEAKRIFKKE
modifications: PEPTIDE (1)...(131) wild-type rat intestinal fatty acid binding protein
B12: L2P8F11: FABP probe, substitution A73I vs SEQ ID NO: 2 (protein, listed as Rattus norvegicus)
chain: AFDGTWKVDRNENYEKFMEKMGINVVKRKLGAHDNLKLTITQEGNKFTVKESSNFRNIDVVFELGVDFAYSLIDGTELTGTWTMEGNKLVGKFKRVDNGKELIAVREISGNELIQTYTYEGVEAKRIFKKE
modifications: PEPTIDE (1)...(131) wild-type rat intestinal fatty acid binding protein
B13: 18L 73L 72A (protein, listed as Rattus norvegicus)
chain: AFDGTWKVDRNENYEKFLEKMGINVVKRKLGAHDNLKLTITQEGNKFTVKESSNFRNIDVVFELGVDFAYSALDGTELTGTWTMEGNKLVGKFKRVDNGKELIAVREISGNELIQTYTYEGVEAKRIFKKE
modifications: PEPTIDE (1)...(131) wild-type rat intestinal fatty acid binding protein

Legend:
Assay type in all cases: binding
[1] = Probe fluorescence ratio response to linoleic acid relative to ADIFAB2; settings: for DR/DR LA: response relative to ADIFAB2; for ΔR/DRAΔ2 LA: Table 5
How it was run: (§1)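 Fluorescently labeled rat intestinal FABP variants were read at two emission wavelengths, near the unbound maximum (about 420 to 480 nm) and the FFA-bound maximum (about 495 to 580 nm). R = Fλ1/Fλ2 after subtracting probe-free intensity; ΔR = R+agent − R0, normalized to ADIFAB2 (rI-FABP-L72A).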

[2] = Probe fluorescence ratio response to stearic acid relative to ADIFAB2; settings: for DR/DR SA: response relative to ADIFAB2; for ΔR/DRAΔ2 SA: Table 5
How it was run: as §1

[3] = Probe fluorescence ratio response to arachidonic acid relative to ADIFAB2; settings: for DR/DR AA: arachidonic acid, response relative to ADIFAB2; for ΔR/DRAΔ2 AA: Table 5, Arachidonic acid
How it was run: as §1

[4] = Probe fluorescence ratio response to oleic acid relative to ADIFAB2; settings: for DR/DR OA: response relative to ADIFAB2; for ΔR/DRAΔ2 OA: Table 5
How it was run: as §1

[5] = Probe fluorescence ratio response to palmitic acid relative to ADIFAB2; settings: for DR/DR PA: response relative to ADIFAB2; for ΔR/DRAΔ2 PA: Table 5
How it was run: as §1

[6] = Probe fluorescence ratio response to palmitoleic acid relative to ADIFAB2; settings: for DR/DR POA: response relative to ADIFAB2; for ΔR/DRAΔ2 POA: Table 5
How it was run: as §1

[7] = Probe fluorescence ratio response to linolenic acid relative to ADIFAB2; settings: for DR/DR LNA: response relative to ADIFAB2; for ΔR/DRAΔ2 LNA: Table 5
How it was run: as §1

Molecule | DR/DR LA [1] | DR/DR SA [2] | DR/DR AA [3] | DR/DR OA [4] | DR/DR PA [5] | DR/DR POA [6] | DR/DR LNA [7] | ΔR/DRAΔ2 LA [1] | ΔR/DRAΔ2 SA [2] | ΔR/DRAΔ2 AA [3] | ΔR/DRAΔ2 OA [4] | ΔR/DRAΔ2 PA [5] | ΔR/DRAΔ2 POA [6] | ΔR/DRAΔ2 LNA [7]
B1 | 0.860 | 0.281 | 1.078 | 0.899 | 0.444 | 0.970 | 0.795 | – | – | – | – | – | – | –
B2 | 0.557 | 0.105 | 0.926 | 0.307 | 0.249 | 0.597 | 0.624 | – | – | – | – | – | – | –
B3 | – | – | – | – | – | – | – | 0.7 | 0.4 | 0.6 | 0.6 | 1.1 | 0.8 | 0.9
B4 | – | – | – | – | – | – | – | −0.1 | 0.4 | 0.5 | 0.0 | 0.0 | 0.0 | 0.0
B5 | 0.039 | 0.242 | 0.408 | 0.045 | 0.015 | 0.117 | 0.099 | – | – | – | – | – | – | –
B6 | 2.749 | 3.092 | 4.923 | 3.261 | 1.721 | 1.585 | 1.628 | – | – | – | – | – | – | –
B7 | −0.129 | 0.423 | 0.443 | 0.021 | 0.007 | −0.030 | −0.044 | – | – | – | – | – | – | –
B8 | – | – | – | – | – | – | – | 2.8 | 1.0 | 2.2 | 2.1 | 1.8 | 2.6 | 2.8
B9 | – | – | – | – | – | – | – | 0.1 | 0.2 | 0.4 | 0.1 | 0.0 | 0.1 | 0.1
B10 | 1.597 | 1.161 | 4.264 | 1.843 | 0.851 | 1.217 | 1.694 | – | – | – | – | – | – | –
B11 | 4.381 | 3.396 | 6.322 | 4.703 | 2.759 | 3.284 | 4.024 | – | – | – | – | – | – | –
B12 | – | – | – | – | – | – | – | 0.0 | 0.3 | 0.4 | 0.0 | 0.0 | 0.1 | 0.1
B13 | 0.019 | 0.254 | 0.441 | 0.021 | −0.004 | 0.092 | 0.090 | – | – | – | – | – | – | –
